Test results from paper PMC5270756.

Substrate: c1cc2ccc3cccc4ccc(c1)c2c34
Experiment: oxidation kinetics
Assay type: biochemical, Homo sapiens
Settings: heme; NADPH

B1: P450 1A1 (Homo sapiens) (protein)
chain: MLFPISMSATEFLLASVIFCLVFWVIRASRPQVPKGLKNPPGPWGWPLIGHMLTLGKNPHLALSRMSQQYGDVLQIRIGSTPVVVLSGLDTIRQALVRQGDDFKGRPDLYTFTLISNGQSMSFSPDSGPVWAARRRLAQNGLKSFSIASDPASSTSCYLEEHVSKEAEVLISTLQELMAGPGHFNPYRYVVVSVTNVICAICFGRRYDHNHQELLSLVNLNNNFGEVVGSGNPADFIPILRYLPNPSLNAFKDLNEKFYSFMQKMVKEHYKTFEKGHIRDITDSLIEHCQEKQLDENANVQLSDEKIINIVLDLFGAGFDTVTTAISWSLMYLVMNPRVQRKIQEELDTVIGRSRRPRLSDRSHLPYMEAFILETFRHSSFVPFTIPHSTTRDTSLKGFYIPKGRCVFVNQWQINHDQKLWVNPSEFLPERFLTPDGAIDKVLSEKVIIFGMGKRKCIGETIARWEVFLFLAILLQRVEFSVPLGVKVDMTPIYGLTMKHACCEHFQMQLRS
B1 showed a Km of 1.7 µM.
